In paper PMC2064082 (The Journal of Cell Biology, 2007):
One block for each binder: values may come before it.

Legend:
Ple E12–24 (M546–E1128) = target: T1, Ple E12–24 (M546–E1128) (rat, UniProt P30427 546-1128); experiment: far-Western, overlay or dot blot
T1 sequence (looked up): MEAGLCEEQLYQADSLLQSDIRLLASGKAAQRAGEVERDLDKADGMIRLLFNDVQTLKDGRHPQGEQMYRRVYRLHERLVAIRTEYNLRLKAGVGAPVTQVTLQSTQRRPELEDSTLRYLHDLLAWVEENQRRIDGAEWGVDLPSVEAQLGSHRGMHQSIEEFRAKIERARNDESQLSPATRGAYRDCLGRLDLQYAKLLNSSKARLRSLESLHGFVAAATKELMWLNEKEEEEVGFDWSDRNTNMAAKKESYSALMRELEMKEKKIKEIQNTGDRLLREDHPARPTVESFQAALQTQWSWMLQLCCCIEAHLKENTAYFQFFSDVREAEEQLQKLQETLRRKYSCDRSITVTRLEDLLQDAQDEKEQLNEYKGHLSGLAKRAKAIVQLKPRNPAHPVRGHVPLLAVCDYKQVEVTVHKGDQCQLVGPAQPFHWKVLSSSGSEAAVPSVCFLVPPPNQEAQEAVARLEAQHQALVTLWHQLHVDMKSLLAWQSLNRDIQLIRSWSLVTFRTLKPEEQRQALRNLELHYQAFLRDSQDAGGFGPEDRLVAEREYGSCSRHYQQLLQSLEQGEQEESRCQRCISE

[1] = target: T2, Dys WW-ZZ, WW-ZZ domain (A3041–M3356) of human dystrophin (human, UniProt P11532 3041-3356); experiment: far-Western, overlay or dot blot
T2 sequence (looked up): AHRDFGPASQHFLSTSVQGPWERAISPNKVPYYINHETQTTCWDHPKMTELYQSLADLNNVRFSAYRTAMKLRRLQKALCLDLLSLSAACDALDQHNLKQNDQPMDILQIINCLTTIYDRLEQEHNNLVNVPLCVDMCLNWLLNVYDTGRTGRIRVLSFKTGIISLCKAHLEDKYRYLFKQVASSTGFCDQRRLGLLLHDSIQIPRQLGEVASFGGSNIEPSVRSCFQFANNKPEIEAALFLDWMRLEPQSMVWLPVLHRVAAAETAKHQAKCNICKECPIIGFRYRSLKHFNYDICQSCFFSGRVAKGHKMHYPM

Ple R4–C (L3850–A4687) = target: T3, Ple R4–C (L3850–A4687) (rat, UniProt P30427 3850-4687); experiment: far-Western, overlay or dot blot
T3 sequence (looked up): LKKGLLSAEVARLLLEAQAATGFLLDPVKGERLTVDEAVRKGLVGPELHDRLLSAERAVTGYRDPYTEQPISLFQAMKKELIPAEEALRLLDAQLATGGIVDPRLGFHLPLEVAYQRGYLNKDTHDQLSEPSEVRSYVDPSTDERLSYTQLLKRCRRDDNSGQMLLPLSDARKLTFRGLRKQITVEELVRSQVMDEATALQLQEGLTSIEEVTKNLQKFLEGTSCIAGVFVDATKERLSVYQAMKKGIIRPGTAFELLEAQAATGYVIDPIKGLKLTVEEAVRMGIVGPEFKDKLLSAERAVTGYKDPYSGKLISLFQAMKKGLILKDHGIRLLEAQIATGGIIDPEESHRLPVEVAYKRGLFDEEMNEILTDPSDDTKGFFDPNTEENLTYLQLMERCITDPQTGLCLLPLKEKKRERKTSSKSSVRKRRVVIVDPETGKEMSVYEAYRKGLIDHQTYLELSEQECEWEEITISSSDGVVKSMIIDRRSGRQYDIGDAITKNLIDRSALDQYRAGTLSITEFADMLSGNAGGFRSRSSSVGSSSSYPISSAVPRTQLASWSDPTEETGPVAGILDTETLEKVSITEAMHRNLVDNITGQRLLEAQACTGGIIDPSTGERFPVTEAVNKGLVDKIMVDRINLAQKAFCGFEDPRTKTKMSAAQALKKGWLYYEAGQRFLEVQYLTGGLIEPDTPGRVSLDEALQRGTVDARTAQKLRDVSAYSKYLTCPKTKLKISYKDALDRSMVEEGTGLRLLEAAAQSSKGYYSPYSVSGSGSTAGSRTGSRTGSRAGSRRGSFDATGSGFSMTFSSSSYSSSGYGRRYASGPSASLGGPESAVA

Utr WW-ZZ (A2798–M3113) = target: T4, Utr WW-ZZ (A2798–M3113) (human, UniProt P46939 2798-3113); experiment: microtiter plate-binding assay
T4 sequence (looked up): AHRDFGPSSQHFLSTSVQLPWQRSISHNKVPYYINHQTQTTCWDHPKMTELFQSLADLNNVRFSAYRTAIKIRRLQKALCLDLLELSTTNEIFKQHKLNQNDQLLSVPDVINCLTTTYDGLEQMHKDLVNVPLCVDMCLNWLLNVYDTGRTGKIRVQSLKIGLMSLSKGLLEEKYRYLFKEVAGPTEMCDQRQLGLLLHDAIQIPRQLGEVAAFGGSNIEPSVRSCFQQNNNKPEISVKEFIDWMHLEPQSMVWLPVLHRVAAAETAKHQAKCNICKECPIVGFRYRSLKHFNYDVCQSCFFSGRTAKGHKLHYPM

binding result (Ple E12–24 (M546–E1128)): binds
binding result [1]: binds
binding result (Ple R4–C (L3850–A4687)): binds
B1: βDGcyt (L765–P895), cytoplasmic domain of human β-dystroglycan (domain or fragment, UniProt Q14118 765-895, looked up)
chain: LIAGIIAMICYRKKRKGKLTLEDQATFIKKGVPIIFADELDDSKPPPSSSMPLILQEEKAPLPPPEYPNQSVPETTPLNQDTMGEYTPLRDEDPNAPPYQPPPPFTAPMEGKGSRPKNMTPYRSPPPYVPP

binding result (Utr WW-ZZ (A2798–M3113)): binds
B2: Eu3+-labeled version of the full-length cytoplasmic domain of βDG (βDGcyt) (domain or fragment, human, UniProt Q14118 765-895, looked up)
chain: B1 chain
modifications: Eu3+ label

binding result (Ple E12–24 (M546–E1128)): binds
B3: βDGcytΔDBS (L765–D857), β-dystroglycan cytoplasmic fragment lacking the dystrophin-binding site (domain or fragment, human, UniProt Q14118 765-857, looked up)
chain: LIAGIIAMICYRKKRKGKLTLEDQATFIKKGVPIIFADELDDSKPPPSSSMPLILQEEKAPLPPPEYPNQSVPETTPLNQDTMGEYTPLRDED
